Assay results taken from publication PMC2566858 (Nucleic Acids Research, 2008).
Numbering of substitutions follows the chain as printed.

T1: rGyr_hel (reverse gyrase helicase-like domain) (Thermotoga maritima, UniProt O51934 59-541)
T1 sequence: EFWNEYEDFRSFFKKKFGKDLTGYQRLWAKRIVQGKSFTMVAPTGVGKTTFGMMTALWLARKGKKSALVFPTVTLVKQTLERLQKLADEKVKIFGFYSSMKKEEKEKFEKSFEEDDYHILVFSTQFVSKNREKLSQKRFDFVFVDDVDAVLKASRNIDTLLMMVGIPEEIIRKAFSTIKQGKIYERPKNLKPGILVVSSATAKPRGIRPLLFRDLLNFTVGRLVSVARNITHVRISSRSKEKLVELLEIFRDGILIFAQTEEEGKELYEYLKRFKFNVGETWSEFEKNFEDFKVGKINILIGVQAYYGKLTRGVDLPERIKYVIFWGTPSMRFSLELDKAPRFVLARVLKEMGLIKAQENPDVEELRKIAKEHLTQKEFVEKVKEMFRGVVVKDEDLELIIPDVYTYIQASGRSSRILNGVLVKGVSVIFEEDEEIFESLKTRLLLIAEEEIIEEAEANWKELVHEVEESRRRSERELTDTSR

T2: rGyr_fl K106Q/Y851F (Thermotoga maritima, UniProt O51934 1-1104, K106Q;Y851F)
T2 sequence: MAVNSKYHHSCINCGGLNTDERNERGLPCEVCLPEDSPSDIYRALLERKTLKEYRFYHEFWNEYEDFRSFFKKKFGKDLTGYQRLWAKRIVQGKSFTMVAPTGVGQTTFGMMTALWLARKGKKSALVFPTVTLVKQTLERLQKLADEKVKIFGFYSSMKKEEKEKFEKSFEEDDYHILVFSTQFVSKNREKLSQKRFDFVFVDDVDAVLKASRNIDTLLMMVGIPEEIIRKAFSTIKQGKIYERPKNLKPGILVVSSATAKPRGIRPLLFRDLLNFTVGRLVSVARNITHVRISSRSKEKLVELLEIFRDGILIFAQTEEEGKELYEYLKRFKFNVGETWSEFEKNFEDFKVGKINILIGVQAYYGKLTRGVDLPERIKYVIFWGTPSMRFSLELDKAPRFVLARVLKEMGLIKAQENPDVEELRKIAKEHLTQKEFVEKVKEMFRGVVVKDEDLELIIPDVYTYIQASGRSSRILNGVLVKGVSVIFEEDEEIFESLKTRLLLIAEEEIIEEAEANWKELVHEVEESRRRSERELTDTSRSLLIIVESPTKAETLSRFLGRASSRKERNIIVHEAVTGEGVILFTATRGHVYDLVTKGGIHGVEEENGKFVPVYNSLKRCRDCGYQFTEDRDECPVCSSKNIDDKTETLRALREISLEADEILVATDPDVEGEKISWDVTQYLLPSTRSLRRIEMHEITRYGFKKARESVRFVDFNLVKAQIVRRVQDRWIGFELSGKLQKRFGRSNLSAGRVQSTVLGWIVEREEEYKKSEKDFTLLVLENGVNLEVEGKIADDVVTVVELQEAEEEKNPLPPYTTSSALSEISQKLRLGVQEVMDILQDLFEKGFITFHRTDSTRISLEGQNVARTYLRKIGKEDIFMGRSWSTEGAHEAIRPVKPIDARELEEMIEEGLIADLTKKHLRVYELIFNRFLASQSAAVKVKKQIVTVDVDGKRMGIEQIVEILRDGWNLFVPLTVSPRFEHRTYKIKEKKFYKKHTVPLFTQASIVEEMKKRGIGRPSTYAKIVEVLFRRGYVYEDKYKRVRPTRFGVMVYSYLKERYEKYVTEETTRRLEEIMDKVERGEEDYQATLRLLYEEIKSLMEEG

T3: rGyr_hel K106Q (Thermotoga maritima, UniProt O51934 59-541, K106Q)
T3 sequence: T1 sequence with K48Q

B1: 60-base ssDNA (ssDNA)
DNA: AAGCCAAGCTTCTAGAGTCAGCCCGTGATATTCATTACTTCTTATCCTAGGATCCCCGTT
B2: 60 bp dsDNA (dsDNA)
DNA 1: B1 DNA
DNA 2: AACGGGGATCCTAGGATAAGAAGTAATGAATATCACGGGCTGACTCTAGAAGCTTGGCTT

Key:
Experiment in all cases: fluorescence anisotropy
[1] = biological target: T1, rGyr_hel (reverse gyrase helicase-like …)
[2] = biological target: T2, rGyr_fl K106Q/Y851F
[3] = biological target: T3, rGyr_hel K106Q

Row | Binder | Kd [1] | Kd [2] | Kd [3]
1 | B1 | 380 ± 50 nM | – | –
2 | B2 | – | 490 ± 90 nM | 1700 ± 200 nM
